B1: His-T7-hnRNP C1 wild type (natural protein, UniProt P07910-2 1-293, looked up)
chain: MASNVTNKTDPRSMNSRVFIGNLNTLVVKKSDVEAIFSKYGKIVGCSVHKGFAFVQYVNERNARAAVAGEDGRMIAGQVLDINLAAEPKVNRGKAGVKRSAAEMYGSSFDLDYDFQRDYYDRMYSYPARVPPPPPIARAVVPSKRQRVSGNTSRRGKSGFNSKSGQRGSSKSGKLKGDDLQAIKKELTQIKQKVDSLLENLEKIEKEQSKQAVEMKNDKSEEEQSSSSVKKDETNVKMESEGGADDSAEEGDLLDDDDNEDRGDDQLELIKDDEKEAEEGEDDRDSANGEDDS
B2: His-T7-hnRNP C1 ΔBASIC (natural protein)
chain: MASNVTNKTDPRSMNSRVFIGNLNTLVVKKSDVEAIFSKYGKIVGCSVHKGFAFVQYVNERNARAAVAGEDGRMIAGQVLDINLAAEPKVNRGKAGVKRSAAEMYGSSFDLDYDFQRDYYDRMYSYPARVPPPPPIARALQAIKKELTQIKQKVDSLLENLEKIEKEQSKQAVEMKNDKSEEEQSSSSVKKDETNVKMESEGGADDSAEEGDLLDDDDNEDRGDDQLELIKDDEKEAEEGEDDRDSANGEDDS
B3: His-T7-hnRNP C1 ΔRRMΔBASIC (natural protein)
chain: MASNVTNKTDPRSMNPKVNRGKAGVKRSAAEMYGSSFDLDYDFQRDYYDRMYSYPARVPPPPPIARALQAIKKELTQIKQKVDSLLENLEKIEKEQSKQAVEMKNDKSEEEQSSSSVKKDETNVKMESEGGADDSAEEGDLLDDDDNEDRGDDQLELIKDDEKEAEEGEDDRDSANGEDDS

Molecular target: the molecule itself
Assay: SEC

Stoichiometry N, 4:
B1
B2
B3
